# Assays:
# Assay type in all cases: biochemical, B. amyloliquefaciens
# [1] = substrate: C[C@H](NC(=O)CCC(=O)O)C(=O)N[C@@H](C)C(=O)N1CCC[C@H]1C(=O)N[C@@H](CCCCN)C(=O)Nc1ccc([N+](=O)[O-])cc1; assay: Kinetics of p-nitroanilide substrate hydrolysis, Q156/K166; conditions: other: Table XIV, 156 Gln / 166 Lys; value in parentheses; synthetic substrate with label as P-1 amino acid
# Source text: (§1) Wild-type subtilisin was purified from B. subtilis culture supernatants expressing the B. amyloliquefaciens subtilisin gene (Wells, J.A., et al. (1983) Nucleic Acids Res. 11, 7911-7925) as previously described (Estell, D.A., et al. (1985) J. Biol. Chem. 260, 6518-6521). Details of the synthesis of tetrapeptide substrates having the form succinyl-L-AlaL-AlaL-ProL-[X]-p-nitroanilide (where X is the P1 amino acid) are described by DelMar, E.G., et al. (1979) Anal. Biochem. 99, 316-320. Kinetic parameters, Km(M) and kcat-(s-^1) were measured using a modified progress curve analysis (Estell, D.A., et al. (1985) J. Biol. Chem. 260, 6518-6521). Briefly, plots of rate versus product concentration were fit to the differential form of the rate equation using a non-linear regression algorithm. Errors in kcat and Km for all values reported are less than five percent. The various substrates in Table VIII are ranged in order of decreasing hydrophobicity. Nozaki, Y. (1971), J. Biol. Chem. 246, 2211-2217; Tanford C. (1978) Science 200, 1012).
# (§2) The multiple mutants were produced by combining fragments 1, 2 and 3 as described in Example 8. The mutants Q156/K166 and S156/K166 were selectively generated by differential phosphorylation as described. Alternatively, the double 156/166 mutants, c.f. Q156/K166 and S156/K166, were prepared by ligation of the 4.6kb Sacl-BamHI fragment from the relevant p156 plasmid containing the 0.6kb Sacl-BamHI fragment from the relevant p166 plasmid.
# (§3) These mutants, the single mutant K166, and the S156 and Q156 mutants of Example 8 were analyzed for substitute specificity against synthetic polypeptides containing Phe or Glu as the P-1 substrate residue.
# (§4) To isolate the contribution of electrostatics to substrate specificity from other chemical binding forces, these various single and double mutants were analyzed for their ability to bind and cleave synthetic substrates containing Glu, Gln, Met and Lys as the P-1 substrate amino acid. This permitted comparisons between side-chains that were more sterically similar but differed in charge (e.g., Glu versus Gln, Lys versus Met). Similarly, mutant enzymes were assayed against homologous P-1 substrates that were most sterically similar but differed in charge (Table XIV).
# [2] = substrate: C[C@H](NC(=O)CCC(=O)O)C(=O)N[C@@H](C)C(=O)N1CCC[C@H]1C(=O)N[C@@H](CCC(=O)O)C(=O)Nc1ccc([N+](=O)[O-])cc1; assay: as above
# Source text: as §1, §2, §3, §4
# [3] = substrate: C[C@H](NC(=O)CCC(=O)O)C(=O)N[C@@H](C)C(=O)N1CCC[C@H]1C(=O)N[C@@H](Cc1ccccc1)C(=O)Nc1ccc([N+](=O)[O-])cc1; assay: as above; conditions: other: Table XIII, Q156/K166; synthetic substrate with label as P-1 residue
# Source text: as §1, §2, §3, §4
# [4] = substrate: C[C@H](NC(=O)CCC(=O)O)C(=O)N[C@@H](C)C(=O)N1CCC[C@H]1C(=O)N[C@@H](CCC(N)=O)C(=O)Nc1ccc([N+](=O)[O-])cc1; assay: as above; conditions: other: Table XIV, 156 Gln / 166 Lys; value in parentheses; synthetic substrate with label as P-1 amino acid
# Source text: as §1, §2, §3, §4
# [5] = substrate: CSCC[C@H](NC(=O)[C@@H]1CCCN1C(=O)[C@H](C)NC(=O)[C@H](C)NC(=O)CCC(=O)O)C(=O)Nc1ccc([N+](=O)[O-])cc1; assay: as above; conditions: other: Table XIV, 156 Gln / 166 Lys; value in parentheses; synthetic substrate with label as P-1 amino acid
# Source text: as §1, §2, §3, §4
# [6] = substrate: C[C@H](NC(=O)CCC(=O)O)C(=O)N[C@@H](C)C(=O)N1CCC[C@H]1C(=O)N[C@@H](CCCCN)C(=O)Nc1ccc([N+](=O)[O-])cc1; assay: Kinetics of p-nitroanilide substrate hydrolysis, E166; conditions: other: Table XIV, 156 Glu / 166 Glu; value in parentheses; synthetic substrate with label as P-1 amino acid
# Source text: as §1
# (§5) The construction of subtilisin mutants containing the substitution of the ionic amino acids Asp, Asn, Gln, Lys and Ang are disclosed in EPO Publication No. 0130756. The present example describes the construction of the mutant subtilisin containing Glu at position 166 (E166) and presents substrate specificity data on these mutants. Further data on position 166 and 156 single and double mutants is presented infra.
# (§6) pΔ166, described in Example 3, was digested with Sacl and Xmal. The double strand DNA cassette (underlined and overlined) of line 4 in Figure 13 contained the triplet GAA for the codon 166 to encode the replacement of Glu for Gly166. This mutant plasmid designated […] was propagated in BG2036 as described. This mutant subtilisin, together with the other mutants containing ionic substituent amino acids at residue 166, were isolated as described and further analyzed for variations in substrate specificity.
# (§7) Each of these mutants was analyzed with the tetrapeptide substrates, succinyl-L-AlaL-AlaProL-X-p-nitroanilide, where X was Phe, Ala and Glu.
# [7] = substrate: C[C@H](NC(=O)CCC(=O)O)C(=O)N[C@@H](C)C(=O)N1CCC[C@H]1C(=O)N[C@@H](CCC(N)=O)C(=O)Nc1ccc([N+](=O)[O-])cc1; assay: as above; conditions: other: Table XIV, 156 Glu / 166 Glu; value in parentheses; synthetic substrate with label as P-1 amino acid
# Source text: as §1, §5, §6, §7
# [8] = substrate: CSCC[C@H](NC(=O)[C@@H]1CCCN1C(=O)[C@H](C)NC(=O)[C@H](C)NC(=O)CCC(=O)O)C(=O)Nc1ccc([N+](=O)[O-])cc1; assay: as above; conditions: other: Table XIV, 156 Glu / 166 Glu; value in parentheses; synthetic substrate with label as P-1 amino acid
# Source text: as §1, §5, §6, §7
# [9] = substrate: C[C@H](NC(=O)CCC(=O)O)C(=O)N[C@@H](C)C(=O)N1CCC[C@H]1C(=O)N[C@@H](CCCCN)C(=O)Nc1ccc([N+](=O)[O-])cc1; assay: Kinetics of p-nitroanilide substrate hydrolysis, D166; conditions: other: Table XIV, 156 Glu / 166 Asp; value in parentheses; synthetic substrate with label as P-1 amino acid
# Source text: as §1, §5, §7
# [10] = substrate: C[C@H](NC(=O)CCC(=O)O)C(=O)N[C@@H](C)C(=O)N1CCC[C@H]1C(=O)N[C@@H](CCC(N)=O)C(=O)Nc1ccc([N+](=O)[O-])cc1; assay: as above; conditions: other: Table XIV, 156 Glu / 166 Asp; value in parentheses; synthetic substrate with label as P-1 amino acid
# Source text: as §1, §5, §7
# [11] = substrate: CSCC[C@H](NC(=O)[C@@H]1CCCN1C(=O)[C@H](C)NC(=O)[C@H](C)NC(=O)CCC(=O)O)C(=O)Nc1ccc([N+](=O)[O-])cc1; assay: as above; conditions: other: Table XIV, 156 Glu / 166 Asp; value in parentheses; synthetic substrate with label as P-1 amino acid
# Source text: as §1, §5, §7
# [12] = substrate: C[C@H](NC(=O)CCC(=O)O)C(=O)N[C@@H](C)C(=O)N1CCC[C@H]1C(=O)N[C@@H](CCCCN)C(=O)Nc1ccc([N+](=O)[O-])cc1; assay: Kinetics of p-nitroanilide substrate hydrolysis, S156/K166; conditions: other: Table XIV, 156 Ser / 166 Lys; value in parentheses; synthetic substrate with label as P-1 amino acid
# Source text: as §1, §2, §3, §4
# [13] = substrate: C[C@H](NC(=O)CCC(=O)O)C(=O)N[C@@H](C)C(=O)N1CCC[C@H]1C(=O)N[C@@H](CCC(=O)O)C(=O)Nc1ccc([N+](=O)[O-])cc1; assay: as above
# Source text: as §1, §2, §3, §4
# [14] = substrate: C[C@H](NC(=O)CCC(=O)O)C(=O)N[C@@H](C)C(=O)N1CCC[C@H]1C(=O)N[C@@H](Cc1ccccc1)C(=O)Nc1ccc([N+](=O)[O-])cc1; assay: as above; conditions: other: Table XIII, S156/K166; synthetic substrate with label as P-1 residue
# Source text: as §1, §2, §3, §4
# [15] = substrate: C[C@H](NC(=O)CCC(=O)O)C(=O)N[C@@H](C)C(=O)N1CCC[C@H]1C(=O)N[C@@H](CCC(N)=O)C(=O)Nc1ccc([N+](=O)[O-])cc1; assay: as above; conditions: other: Table XIV, 156 Ser / 166 Lys; value in parentheses; synthetic substrate with label as P-1 amino acid
# Source text: as §1, §2, §3, §4
# [16] = substrate: CSCC[C@H](NC(=O)[C@@H]1CCCN1C(=O)[C@H](C)NC(=O)[C@H](C)NC(=O)CCC(=O)O)C(=O)Nc1ccc([N+](=O)[O-])cc1; assay: as above; conditions: other: Table XIV, 156 Ser / 166 Lys; value in parentheses; synthetic substrate with label as P-1 amino acid
# Source text: as §1, §2, §3, §4
# [17] = other: Table XIII, Q156/K166, synthetic substrate with label as P-1 residue
# [18] = other: Table XIII, S156/K166, synthetic substrate with label as P-1 residue
protein,measurement,setting,value
"B. amyloliquefaciens subtilisin variant Q156/K166 (Bacillus amyloliquefaciens; E263Q/G273K) (protein, at various amino acid residues within the mature form of the subtilisin molecule; made in house) AQSVPYGVSQIKAPALHSQGYTGSNVKVAVIDSGIDSSHPDLKVAGGASMVPSETNPFQDNNSHGTHVAGTVAALNNSIGVLGVAPSASLYAVKVLGADGSGQYSWIINGIEWAIANNMDVINMSLGGPSGSAALKAAVDKAVASGVVVVAAAGNQGTSGSSSTVKYPGKYPSVIAVGAVDSSNQRASFSSVGPELDVMAPGVSIQSTLPGNKYGAYNGTSMASPHVAGAAALILSKHPNWTNTQVRSSLENTTTKLGDSFYYGKGLINVQAAAQ",Km,[1],1780 µM
same,Km,[2]; [17],31 µM
same,kcat,[2]; [17],1.60 s-^1
same,kcat/Km,[2]; [17],50000 M⁻¹ s⁻¹
same,Km,"[2]; other: Table XIV, 156 Gln / 166 Lys, value in parentheses, synthetic substrate with label as P-1 amino acid",31.6 µM
same,Km,[3],19 µM
same,kcat,[3],30.00 s-^1
same,kcat/Km,[3],1.6e+06 M⁻¹ s⁻¹
same,Km,[4],209 µM
same,Km,[5],20.9 µM
"B. amyloliquefaciens subtilisin variant E166 (Gly166 to Glu) (Bacillus amyloliquefaciens; G273E) (protein, at various amino acid residues within the mature form of the subtilisin molecule; made in house; host or cells: Bacillus subtilis BG2036) AQSVPYGVSQIKAPALHSQGYTGSNVKVAVIDSGIDSSHPDLKVAGGASMVPSETNPFQDNNSHGTHVAGTVAALNNSIGVLGVAPSASLYAVKVLGADGSGQYSWIINGIEWAIANNMDVINMSLGGPSGSAALKAAVDKAVASGVVVVAAAGNEGTSGSSSTVEYPGKYPSVIAVGAVDSSNQRASFSSVGPELDVMAPGVSIQSTLPGNKYGAYNGTSMASPHVAGAAALILSKHPNWTNTQVRSSLENTTTKLGDSFYYGKGLINVQAAAQ",Km,[6],204 µM
same,Km,[7],1230 µM
same,Km,[8],525 µM
"B. amyloliquefaciens subtilisin variant D166 (Gly166 to Asp) (Bacillus amyloliquefaciens; G273D) (protein, at various amino acid residues within the mature form of the subtilisin molecule; made in house; host or cells: Bacillus subtilis BG2036) AQSVPYGVSQIKAPALHSQGYTGSNVKVAVIDSGIDSSHPDLKVAGGASMVPSETNPFQDNNSHGTHVAGTVAALNNSIGVLGVAPSASLYAVKVLGADGSGQYSWIINGIEWAIANNMDVINMSLGGPSGSAALKAAVDKAVASGVVVVAAAGNEGTSGSSSTVDYPGKYPSVIAVGAVDSSNQRASFSSVGPELDVMAPGVSIQSTLPGNKYGAYNGTSMASPHVAGAAALILSKHPNWTNTQVRSSLENTTTKLGDSFYYGKGLINVQAAAQ",Km,[9],1000 µM
same,Km,[10],2750 µM
same,Km,[11],1820 µM
"B. amyloliquefaciens subtilisin variant S156/K166 (Bacillus amyloliquefaciens; E263S/G273K) (protein, at various amino acid residues within the mature form of the subtilisin molecule; made in house) AQSVPYGVSQIKAPALHSQGYTGSNVKVAVIDSGIDSSHPDLKVAGGASMVPSETNPFQDNNSHGTHVAGTVAALNNSIGVLGVAPSASLYAVKVLGADGSGQYSWIINGIEWAIANNMDVINMSLGGPSGSAALKAAVDKAVASGVVVVAAAGNSGTSGSSSTVKYPGKYPSVIAVGAVDSSNQRASFSSVGPELDVMAPGVSIQSTLPGNKYGAYNGTSMASPHVAGAAALILSKHPNWTNTQVRSSLENTTTKLGDSFYYGKGLINVQAAAQ",Km,[12],1450 µM
same,Km,[13]; [18],39 µM
same,kcat,[13]; [18],0.60 s-^1
same,kcat/Km,[13]; [18],16000 M⁻¹ s⁻¹
same,Km,"[13]; other: Table XIV, 156 Ser / 166 Lys, value in parentheses, synthetic substrate with label as P-1 amino acid",39.8 µM
same,Km,[14],18 µM
same,kcat,[14],30.00 s-^1
same,kcat/Km,[14],1.6e+06 M⁻¹ s⁻¹
same,Km,[15],115 µM
same,Km,[16],12.6 µM
